Positions count from the first letter of the chain named. Names may count otherwise. Read-outs that look alike come from different tables or passages of the source. Blank lines part the entries; values can stand above or below the binder they belong to.
Legend:
[1] = molecular target: T1, human PD-L1-Fc protein (Sinobio, 10084-H02H) (human, UniProt Q9NZQ7 19-239); assay: DACE (dual antigen capture ELISA): plate coated with human PD-L1-Fc, then bispecific, then human 4-1BB-His, anti-His HRP
T1 construct: Purchased reagent; not shown: Fc part of the purchased fusion
T1 sequence (Q9NZQ7 19-239): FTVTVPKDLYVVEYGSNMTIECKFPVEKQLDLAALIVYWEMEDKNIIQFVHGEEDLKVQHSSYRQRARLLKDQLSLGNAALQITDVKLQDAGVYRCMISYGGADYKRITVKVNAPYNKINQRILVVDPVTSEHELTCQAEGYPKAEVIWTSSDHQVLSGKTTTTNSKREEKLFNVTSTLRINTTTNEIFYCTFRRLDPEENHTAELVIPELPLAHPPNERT
Protocol: (§1) Briefly, microtiter plates were coated with 100 ng/well of human PD-L1-Fc protein (Sinobio, 10084-H02H) in PBS at 4° C. overnight, then blocked with 100 μl/well of 1% BSA for 2 hours at 37° C. Three-fold dilutions of each of the BsAbs starting from 100 nM were added to each well and incubated for 2 hours at 37° C. The plates were washed with PBS/Tween and then incubate with 50 ng/well of human 4-1BB-His protein (Sinobio, 16498-H08H) in 1% BSA for 1 hour at 37° C. The plates were washed with PBS/Tween and then incubate with Anti-His HRP (Roche, Cat: 11965085001) for 1 hour at 37° C. After washing, the plates were developed with TMB substrate and analyzed by spectrophotometer at OD 450-650 nm.

[2] = molecular target: T2, 4-1BB expressed on Jurkat cells (4-1BB-Jurkat cells; GloResponse NFkB-luc2/4-1BB Jurkat cell line) (human, UniProt Q07011 24-255); assay: cell-based or functional assay
T2 sequence (Q07011 24-255 limits assumed): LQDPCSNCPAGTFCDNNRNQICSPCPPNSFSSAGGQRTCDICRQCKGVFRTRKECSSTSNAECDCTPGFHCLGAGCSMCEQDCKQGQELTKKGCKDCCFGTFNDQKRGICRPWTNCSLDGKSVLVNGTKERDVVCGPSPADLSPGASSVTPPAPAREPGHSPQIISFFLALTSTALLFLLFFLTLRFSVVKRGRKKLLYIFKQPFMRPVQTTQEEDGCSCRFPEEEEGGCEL

[3] = molecular target: T1, human PD-L1-Fc protein (Sinobio, …); assay: DACE after incubation in human serum for 3, 7, 14 days at 37 C
Protocol: as §1, with “Binding activity was analyzed to DACE (Dual antigen captured ELISA) test. Briefly,” for “Briefly,”

[4] = molecular target: T2, 4-1BB expressed on Jurkat cells …; assay: cell-based or functional assay; remark: listed apart in the source
[5] = molecular target: T3, human 4-1BB-His protein (Sinobio, 16498-H08H) (human, UniProt Q07011 24-186); assay: DACE (dual antigen capture ELISA): bispecific captured on coated human PD-L1-Fc binds soluble human 4-1BB-His, detected with anti-His HRP
T3 construct: Purchased reagent; not shown: His tag of the purchased protein
Protocol: as §1

[6] = molecular target: T1, human PD-L1-Fc protein (Sinobio, …); assay: DACE (dual antigen capture ELISA): bispecific titrated on coated human PD-L1-Fc; signal also needs binding of human 4-1BB-His (anti-His HRP)
Protocol: as §1

[7] = molecular target: T1, human PD-L1-Fc protein (Sinobio, …); assay: DACE after incubation in human serum at 37 C for 0, 3, 7 or 14 days: bispecific titrated on coated human PD-L1-Fc; signal also needs binding of human 4-1BB-His (anti-His HRP)
Protocol: as §1, with “Binding activity was analyzed to DACE (Dual antigen captured ELISA) test. Briefly,” for “Briefly,”

[8] = molecular target: T3, human 4-1BB-His protein (Sinobio, …); assay: DACE after incubation in human serum for 3, 7, 14 days at 37 C
Protocol: as §1, with “Binding activity was analyzed to DACE (Dual antigen captured ELISA) test. Briefly,” for “Briefly,”

[9] = molecular target: PD-L1 (Biacore kinetics, Example 1.5) (UniProt Q9NZQ7 19-238, limits assumed); assay: SPR (Biacore), affinity ranking
Chain of PD-L1 (Biacore kinetics, Example 1.5) (Q9NZQ7 19-238 limits assumed): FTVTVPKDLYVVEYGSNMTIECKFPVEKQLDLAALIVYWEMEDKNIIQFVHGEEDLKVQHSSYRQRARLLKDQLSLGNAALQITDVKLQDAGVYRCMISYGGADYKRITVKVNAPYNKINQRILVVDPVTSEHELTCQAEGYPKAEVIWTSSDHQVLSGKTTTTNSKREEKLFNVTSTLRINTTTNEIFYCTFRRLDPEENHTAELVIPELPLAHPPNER

human 4-1BB-Fc protein = molecular target: T4, human 4-1BB-Fc protein (human, UniProt Q07011 24-186, limits assumed); assay: ELISA, plate coated with human 4-1BB-Fc, detection with anti-human IgG-HRP, OD 450-630 nm
T4 construct: not shown: Fc part of the fusion
Protocol: To evaluate the antigen binding activity, the antibody candidates were subjected to ELISA test. Briefly, microtiter plates were coated with human 4-1BB-Fc protein at 0.1 μg/ml in PBS, 100 μl/well at 4° C. overnight, then blocked with 100 μl/well of 5% BSA. […] The plates were washed with PBS/Tween and then incubate with goat-anti-human IgG antibody conjugated with Horse Radish Peroxidase (HRP) for 1 hour at RT. After washing, the plates were developed with TMB substrate and analyzed by spectrophotometer at OD 450-630 nm.

[10] = molecular target: T2, 4-1BB expressed on Jurkat cells …; assay: cell-based or functional assay; remark: listed apart in the source
[11] = molecular target: T5, 4-1BB (Octet Red 96 kinetics, Example 2.2(3)) (human, UniProt Q07011 24-186, limits assumed); assay: BLI (Octet Red 96), affinity ranking
T5 construct: also called human 4-1BB
Text: To explore the binding kinetics of the humanized antibody, this example performed the affinity ranking by using Octet Red 96.

B2: ABLPNB.05 (B6x41B01.01; anti-PD-L1 B6 in IgG form and anti-4-1BB 41B01.01 in scFv form) (bispecific antibody)
heavy: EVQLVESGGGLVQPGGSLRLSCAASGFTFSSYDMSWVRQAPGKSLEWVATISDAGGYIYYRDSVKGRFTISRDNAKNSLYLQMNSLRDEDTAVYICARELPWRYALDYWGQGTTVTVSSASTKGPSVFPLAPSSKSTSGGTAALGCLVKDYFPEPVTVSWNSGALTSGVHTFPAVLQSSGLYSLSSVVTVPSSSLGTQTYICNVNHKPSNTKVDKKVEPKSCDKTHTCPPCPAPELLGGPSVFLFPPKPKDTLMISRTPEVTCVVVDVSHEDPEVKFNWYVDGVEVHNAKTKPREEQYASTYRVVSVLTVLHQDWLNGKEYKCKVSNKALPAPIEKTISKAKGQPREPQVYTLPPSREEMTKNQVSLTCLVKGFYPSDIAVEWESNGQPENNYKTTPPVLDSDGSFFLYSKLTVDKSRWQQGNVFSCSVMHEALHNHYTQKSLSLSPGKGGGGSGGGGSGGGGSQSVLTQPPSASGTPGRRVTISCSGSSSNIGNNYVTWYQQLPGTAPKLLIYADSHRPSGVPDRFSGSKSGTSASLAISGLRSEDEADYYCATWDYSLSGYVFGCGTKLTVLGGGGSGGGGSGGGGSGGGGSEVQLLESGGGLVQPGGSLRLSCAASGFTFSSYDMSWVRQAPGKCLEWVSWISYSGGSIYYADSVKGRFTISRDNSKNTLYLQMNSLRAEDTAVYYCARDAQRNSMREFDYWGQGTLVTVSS
light: DIQMTQSPSSLSASVGDRVTITCKASQDVTPAVAWYQQKPGKAPKLLIYSTSSRYTGVPSRFSGSGSGTDFTFTISSLQPEDIATYYCQQHYTTPLTFGQGTKLEIKRTVAAPSVFIFPPSDEQLKSGTASVVCLLNNFYPREAKVQWKVDNALQSGNSQESVTEQDSKDSTYSLSSTLTLSKADYEKHKVYACEVTHQGLSSPVTKSFNRGEC
notes: IgG x scFv form, IgG1 N297A backbone
binding result [3]: binds

B3: ABLPNB.08 (B6x41B01.04; anti-PD-L1 B6 in IgG form and anti-4-1BB 41B01.04 in scFv form) (bispecific antibody)
heavy: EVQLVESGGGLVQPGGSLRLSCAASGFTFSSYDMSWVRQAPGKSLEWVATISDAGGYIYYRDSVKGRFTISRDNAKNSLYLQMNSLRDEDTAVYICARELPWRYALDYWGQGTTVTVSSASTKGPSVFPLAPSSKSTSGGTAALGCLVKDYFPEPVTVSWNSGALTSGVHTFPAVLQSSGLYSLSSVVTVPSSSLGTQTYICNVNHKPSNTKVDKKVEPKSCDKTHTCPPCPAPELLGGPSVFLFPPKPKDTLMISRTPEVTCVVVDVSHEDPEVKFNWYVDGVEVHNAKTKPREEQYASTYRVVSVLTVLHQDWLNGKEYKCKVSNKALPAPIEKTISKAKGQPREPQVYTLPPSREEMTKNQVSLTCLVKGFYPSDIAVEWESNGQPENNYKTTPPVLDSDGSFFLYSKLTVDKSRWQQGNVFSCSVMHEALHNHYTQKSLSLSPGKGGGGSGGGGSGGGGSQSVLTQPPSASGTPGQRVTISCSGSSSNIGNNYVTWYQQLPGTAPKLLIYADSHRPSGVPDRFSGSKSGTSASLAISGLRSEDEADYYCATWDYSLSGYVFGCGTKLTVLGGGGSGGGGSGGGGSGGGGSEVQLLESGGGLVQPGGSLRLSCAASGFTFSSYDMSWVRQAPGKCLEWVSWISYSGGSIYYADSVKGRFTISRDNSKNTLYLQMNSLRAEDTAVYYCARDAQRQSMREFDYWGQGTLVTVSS
light: B2 light
notes: as for B2
binding result [3]: binds | EC50 (read off the curve), NFkB-luc2/4-1BB Jurkat reporter with PD-L1 positive target cells [4]: ~0.09 nM

B8: H12 (Hu1210-41; Hu1210 VH.4d x Hu1210 VK.1) (antibody, V domains shown)
VH: EVQLVESGGGLVQPGGSLRLSCAASGFTFSSYDMSWVRQAPGKSLEWVATISDAGGYIYYSDSVKGRFTISRDNAKNSLYLQMNSLRDEDTAVYICAREFGKRYALDYWGQGTTVTVSS
VL: DIQMTQSPSSLSASVGDRVTITCKASQDVTPAVAWYQQKPGKAPKLLIYSTSSRYTGVPSRFSGSGSGTDFTFTISSLQPEDIATYYCQQHYTTPLTFGQGTKLEIK
notes: also called WT (H12)
Kd [9]: 6.12 nM | koff [9]: 0.000436 s⁻¹ | kon [9]: 71200 M⁻¹ s⁻¹

B9: B6 (anti-PD-L1 clone derived from Hu1210-41) (antibody, V domains shown)
VH: B8 VH with S61R, F100L, G101P, K102W
VL: B8 VL
Kd [9]: 4.25 nM | koff [9]: 0.000418 s⁻¹ | kon [9]: 98300 M⁻¹ s⁻¹

B11: 41B02 (anti-4-1BB monoclonal antibody) (antibody, V domains shown)
VH: EVQLLESGGGLVQPGGSLRLSCAASGFTFSGYDMSWVRQAPGKGLEWVSVIYPDDGNTYYADSVKGRFTISRDNSKNTLYLQMNSLRAEDAAVYYCAKHGGQKPTTKSSSAYGMDGWGQGTLVTVSS
VL: QSVLTQPPSASGTPGRRVTISCSGSSSNIGNNYVTWYQQLPGTAPKLLIYADSHRPSGVPDRFSGSKSGTSASLAISGLRSEDEADYYCATWDYSLSGYVFGGGTKLTVL
notes: Detected with anti-human IgG
EC50 (read off the curve) (human 4-1BB-Fc protein): ~0.2 nM | Kd [11]: 1.01 nM | koff [11]: 0.000603 s⁻¹ | kon [11]: 595000 M⁻¹ s⁻¹

Second part, the binder after the results:

binding result [1]: binds | EC50 (read off the curve), NFkB-luc2/4-1BB Jurkat reporter with PD-L1 positive target cells [2]: ~0.1 nM
B1: ABLPNB.03 (H12x41B02; anti-PD-L1 H12 in IgG form and anti-4-1BB 41B02 in scFv form) (bispecific antibody)
heavy: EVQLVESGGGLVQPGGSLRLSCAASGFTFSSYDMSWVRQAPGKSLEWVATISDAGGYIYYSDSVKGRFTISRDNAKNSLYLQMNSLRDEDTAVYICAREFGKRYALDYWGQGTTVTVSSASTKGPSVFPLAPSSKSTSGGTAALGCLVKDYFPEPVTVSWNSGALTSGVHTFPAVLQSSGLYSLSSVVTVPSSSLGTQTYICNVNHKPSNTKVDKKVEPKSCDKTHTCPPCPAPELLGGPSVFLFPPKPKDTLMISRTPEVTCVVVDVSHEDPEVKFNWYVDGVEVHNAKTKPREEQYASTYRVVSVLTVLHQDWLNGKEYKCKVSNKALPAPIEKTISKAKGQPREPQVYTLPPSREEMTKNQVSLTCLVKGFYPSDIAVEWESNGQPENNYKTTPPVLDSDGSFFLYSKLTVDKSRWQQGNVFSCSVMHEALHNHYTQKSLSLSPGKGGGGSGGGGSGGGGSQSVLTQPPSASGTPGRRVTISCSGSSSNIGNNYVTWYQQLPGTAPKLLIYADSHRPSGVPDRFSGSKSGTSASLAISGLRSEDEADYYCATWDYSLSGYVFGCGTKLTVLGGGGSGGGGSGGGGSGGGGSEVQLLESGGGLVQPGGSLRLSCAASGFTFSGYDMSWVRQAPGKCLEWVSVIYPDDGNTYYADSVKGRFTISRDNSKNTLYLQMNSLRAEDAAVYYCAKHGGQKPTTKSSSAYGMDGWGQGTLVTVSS
light: B2 light
notes: as for B2

binding result [5]: binds | binding result [1]: binds
B4: ABLPNB.01 (H12x41B01; anti-PD-L1 H12 in IgG form and anti-4-1BB 41B01 in scFv form) (bispecific antibody)
heavy: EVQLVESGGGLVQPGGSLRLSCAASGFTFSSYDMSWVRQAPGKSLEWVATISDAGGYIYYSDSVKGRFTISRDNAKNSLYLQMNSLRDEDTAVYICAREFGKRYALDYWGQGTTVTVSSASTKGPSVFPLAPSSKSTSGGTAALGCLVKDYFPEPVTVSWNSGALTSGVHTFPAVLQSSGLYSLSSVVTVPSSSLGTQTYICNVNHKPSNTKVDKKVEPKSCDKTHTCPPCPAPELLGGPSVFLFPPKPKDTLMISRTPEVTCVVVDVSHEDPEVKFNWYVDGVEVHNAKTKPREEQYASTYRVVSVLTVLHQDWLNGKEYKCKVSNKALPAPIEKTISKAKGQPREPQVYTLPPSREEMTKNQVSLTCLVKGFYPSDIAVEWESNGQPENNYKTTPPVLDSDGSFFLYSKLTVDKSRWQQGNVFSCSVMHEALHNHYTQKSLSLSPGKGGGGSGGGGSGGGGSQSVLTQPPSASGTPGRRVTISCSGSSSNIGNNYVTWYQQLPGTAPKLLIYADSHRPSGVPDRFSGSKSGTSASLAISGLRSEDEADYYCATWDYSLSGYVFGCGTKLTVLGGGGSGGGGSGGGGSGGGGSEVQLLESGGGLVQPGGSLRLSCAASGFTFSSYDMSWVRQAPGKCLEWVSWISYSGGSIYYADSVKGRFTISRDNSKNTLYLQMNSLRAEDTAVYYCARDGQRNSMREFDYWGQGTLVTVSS
light: B2 light
notes: IgG x scFv form; The heavy component is the H12 heavy chain (IgG1 N297A), a linker, and the scFv (VL-linker-VH, disulfide VL103-VH44)

EC50 (read off the curve) [6]: ~0.9 nM | EC50 (read off the curve) [7]: ~0.2 nM | EC50 (read off the curve), NFkB-luc2/4-1BB Jurkat reporter with PD-L1 positive target cells [4]: ~0.06 nM
B5: ABLPNB.07 (B6x41B01.03; anti-PD-L1 B6 in IgG form and anti-4-1BB 41B01.03 in scFv form) (bispecific antibody)
heavy: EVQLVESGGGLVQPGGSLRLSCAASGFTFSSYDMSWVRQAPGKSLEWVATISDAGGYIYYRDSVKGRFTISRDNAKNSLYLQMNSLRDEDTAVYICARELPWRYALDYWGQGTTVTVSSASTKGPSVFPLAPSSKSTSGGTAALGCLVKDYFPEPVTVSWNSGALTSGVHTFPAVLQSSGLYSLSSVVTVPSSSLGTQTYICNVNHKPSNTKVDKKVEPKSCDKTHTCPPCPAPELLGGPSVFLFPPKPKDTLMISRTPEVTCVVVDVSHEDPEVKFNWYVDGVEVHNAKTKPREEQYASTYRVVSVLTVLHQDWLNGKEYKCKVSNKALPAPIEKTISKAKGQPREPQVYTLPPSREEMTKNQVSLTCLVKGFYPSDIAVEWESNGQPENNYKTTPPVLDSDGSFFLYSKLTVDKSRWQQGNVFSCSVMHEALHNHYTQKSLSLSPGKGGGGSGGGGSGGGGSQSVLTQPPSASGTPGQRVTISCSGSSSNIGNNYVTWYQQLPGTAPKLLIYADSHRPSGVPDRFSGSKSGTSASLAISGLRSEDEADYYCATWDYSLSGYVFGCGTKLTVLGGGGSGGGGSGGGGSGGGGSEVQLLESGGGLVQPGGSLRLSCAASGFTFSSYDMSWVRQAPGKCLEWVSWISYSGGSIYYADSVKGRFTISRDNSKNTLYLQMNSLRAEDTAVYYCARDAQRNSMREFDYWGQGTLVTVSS
light: B2 light
notes: as for B2

binding result [8]: binds | binding result [3]: binds
B6: ABLPNB.06 (anti-PD-L1 B6 in IgG form and anti-4-1BB 41B01.02 in scFv form) (bispecific antibody)
heavy: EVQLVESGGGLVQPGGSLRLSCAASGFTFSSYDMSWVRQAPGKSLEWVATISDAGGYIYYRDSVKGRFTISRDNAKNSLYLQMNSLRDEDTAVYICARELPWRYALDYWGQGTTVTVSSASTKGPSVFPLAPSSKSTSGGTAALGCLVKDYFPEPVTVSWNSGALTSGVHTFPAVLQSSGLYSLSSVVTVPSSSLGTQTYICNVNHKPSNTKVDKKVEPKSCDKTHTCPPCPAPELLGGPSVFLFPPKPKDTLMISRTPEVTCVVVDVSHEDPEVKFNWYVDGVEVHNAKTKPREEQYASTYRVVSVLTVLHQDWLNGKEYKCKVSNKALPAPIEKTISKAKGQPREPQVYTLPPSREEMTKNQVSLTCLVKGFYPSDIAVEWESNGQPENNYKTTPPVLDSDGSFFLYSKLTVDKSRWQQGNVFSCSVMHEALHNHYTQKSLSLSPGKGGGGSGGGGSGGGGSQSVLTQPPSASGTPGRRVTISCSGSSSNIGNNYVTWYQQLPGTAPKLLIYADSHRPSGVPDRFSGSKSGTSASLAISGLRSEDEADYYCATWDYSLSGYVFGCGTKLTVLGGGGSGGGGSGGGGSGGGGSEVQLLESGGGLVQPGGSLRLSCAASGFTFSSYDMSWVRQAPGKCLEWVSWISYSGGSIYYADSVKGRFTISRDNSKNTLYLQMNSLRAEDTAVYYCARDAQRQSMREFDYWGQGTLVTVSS
light: B2 light
notes: as for B2

binding result [5]: binds | EC50 (read off the curve) [6]: ~0.6 nM
B7: ABLPNB.04 (B6x41B01; anti-PD-L1 B6 in IgG form and anti-4-1BB 41B01 in scFv form) (bispecific antibody)
heavy: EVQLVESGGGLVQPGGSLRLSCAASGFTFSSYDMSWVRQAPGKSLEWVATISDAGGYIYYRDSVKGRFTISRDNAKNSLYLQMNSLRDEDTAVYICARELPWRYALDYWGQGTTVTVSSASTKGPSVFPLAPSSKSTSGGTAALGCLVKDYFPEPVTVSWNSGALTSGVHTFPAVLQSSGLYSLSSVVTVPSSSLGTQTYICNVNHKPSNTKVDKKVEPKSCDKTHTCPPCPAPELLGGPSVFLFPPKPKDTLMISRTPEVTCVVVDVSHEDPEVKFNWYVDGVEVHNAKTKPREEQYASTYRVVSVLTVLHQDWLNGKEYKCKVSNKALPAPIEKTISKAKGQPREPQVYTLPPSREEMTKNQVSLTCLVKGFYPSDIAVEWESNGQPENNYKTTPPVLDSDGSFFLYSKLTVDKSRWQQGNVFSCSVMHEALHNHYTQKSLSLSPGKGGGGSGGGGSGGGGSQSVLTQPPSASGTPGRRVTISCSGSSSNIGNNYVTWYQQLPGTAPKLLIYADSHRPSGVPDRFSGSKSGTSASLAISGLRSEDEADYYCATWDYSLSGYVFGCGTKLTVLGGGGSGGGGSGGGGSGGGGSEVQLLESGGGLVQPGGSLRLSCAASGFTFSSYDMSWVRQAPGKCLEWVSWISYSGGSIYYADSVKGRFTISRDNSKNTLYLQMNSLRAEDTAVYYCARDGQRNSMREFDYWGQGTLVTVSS
light: B2 light
notes: as for B2

EC50 (read off the curve) (human 4-1BB-Fc protein): ~0.08 nM | EC50 (read off the curve), NFkB-luc2/4-1BB Jurkat reporter, Fc-crosslinked antibody [10]: ~4 nM | Kd [11]: 0.18 nM | koff [11]: 0.000119 s⁻¹ | kon [11]: 658000 M⁻¹ s⁻¹
B10: 41B01 (anti-4-1BB monoclonal antibody) (antibody, V domains shown)
VH: EVQLLESGGGLVQPGGSLRLSCAASGFTFSSYDMSWVRQAPGKGLEWVSWISYSGGSIYYADSVKGRFTISRDNSKNTLYLQMNSLRAEDTAVYYCARDGQRNSMREFDYWGQGTLVTVSS
VL: B11 VL
notes: Detected with anti-human IgG, so it was tested as a human IgG

From patent US20250145718A1 (ABL BIO, published 2025)
